Data from paper PMC8939794.

Target: His6-Tagged vimentin (Novus Biologicals) (UniProt P08670)
Test: MST; His6-vimentin labelled with RED-tris-NTA 2nd Generation dye, kept at 20 nM; V-domain protein titrated from 40 uM to 0.117 uM; premium capillaries, Monolith NT.115 Pico, 20% excitation power; 'estimated' Kd

Chain of UniProt P08670 (P08670 whole entry): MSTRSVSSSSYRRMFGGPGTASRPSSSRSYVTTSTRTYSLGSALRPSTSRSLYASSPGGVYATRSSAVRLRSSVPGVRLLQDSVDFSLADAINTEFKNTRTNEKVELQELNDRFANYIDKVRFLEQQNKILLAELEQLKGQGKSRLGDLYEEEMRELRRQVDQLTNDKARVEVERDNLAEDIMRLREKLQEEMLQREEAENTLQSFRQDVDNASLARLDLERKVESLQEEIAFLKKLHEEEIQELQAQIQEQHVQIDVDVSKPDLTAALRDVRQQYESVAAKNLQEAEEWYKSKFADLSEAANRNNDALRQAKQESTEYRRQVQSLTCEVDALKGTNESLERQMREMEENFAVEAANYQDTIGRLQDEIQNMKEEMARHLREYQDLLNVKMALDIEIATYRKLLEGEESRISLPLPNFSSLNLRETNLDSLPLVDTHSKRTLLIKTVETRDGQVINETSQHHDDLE

Substance | Kd
BspC Gating Loop Mutant (GLM) V-domain, A250P/A259P (domain or fragment) | 41.9 µM
BspC V-domain (variable domain of Group B streptococcal surface protein C, strain COH1) (domain or fragment) | 7.14 µM
